In one series the target is T1, porcine trypsin (Sus scrofa, UniProt P00761).
T1 construct: purchased Promega
The series is described as follows: Effect of solubilizing agents on trypsin amidase activity (Ac-Lys-p-nitroaniline hydrolysis, 405 nm). The format is biochemical.

Series [1] has as its system OS membrane protein pellet. The series is described as follows: Protein solubilization efficiencies of solubilizing agents (DC protein assay of supernatant). On the procedure:
Bovine retinas obtained from WL Lawson Company (Omaha, Nebr.) were used to prepare the photoreceptor outer segment (OS) by sucrose density ultracentrifugation. All solvents used for bovine OS preparations contained protease inhibitors (1 mM EDTA, 0.2 mM PMSF, 0.7 μg/μL leupeptin, and 0.5 μg/μL pepstatin A) to inhibit protein degradation and 100 μM diethylenetriamine pentaacetic acid (DTPA) to inhibit oxidation.
The solubilized pellet solution was sonicated with a VirSonic 100 ultrasonic cell disrupter (SP Scientific, Gardiner, N.Y.) three times at 4.5 kHz of ultrasonic frequency for 9 seconds with 3-minute intervals between the sonications. The resulting protein extract was centrifuged at 15,000 g for 10 minutes, and the solubilized proteins in the supernatant were quantified using a DC protein assay kit (Bio-Rad, Hercules, Calif.).

For series [2] the following is noted: cited from earlier work.
Series [3] can be described thus: pI values of BSA tryptic peptides. The format is physicochemical.

“Also recorded” adds a separate entry of the source. Where a name gives a salt, the structure may show the parent alone. Read-outs that look alike come from different tables or passages of the source. Square brackets hold non-standard residues; d marks the D form. Ends that are not written are not given here. Met(O) = CS(=O)CC[C@H](N)C(=O)O

T1 sequence (P00761 9-231): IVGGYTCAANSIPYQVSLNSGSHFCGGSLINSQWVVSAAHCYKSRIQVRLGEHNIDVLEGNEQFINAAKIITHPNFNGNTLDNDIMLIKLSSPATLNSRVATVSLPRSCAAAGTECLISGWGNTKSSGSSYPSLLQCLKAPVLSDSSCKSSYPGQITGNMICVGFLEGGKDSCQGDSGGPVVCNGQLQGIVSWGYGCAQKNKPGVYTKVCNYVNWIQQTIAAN
Procedure for porcine trypsin: To measure the amidase activity of 100 nM trypsin, we tracked the hydrolysis of 2 mM Ac-Lys-p-nitro aniline hydrochloride through absorbance increase at 405 nm over 3 min in 100 mM ABC using an ELISA plate reader (Thermo-Fisher Scientific, Waltham, Mass.).

Take `N=C(N)N` [Gdn-HCl, guanidine hydrochloride]: the figures for the trypsin activity retained at porcine trypsin (0.1 M agent) and at porcine trypsin (0.25 M agent) were 40% and 20%, respectively. For the same compound, the Protein amount solubilized in series [1] is 7.3 ± 4.1 μg/10μ OS membrane preparation. The “protein solubilized from OS membrane protein pellet” value (shortened to “protein solubilized”) in series [1] came out at 7.3 µg.
Regarding `O=C(O)C(F)(F)C(F)(F)C(F)(F)C(F)(F)C(F)(F)C(F)(F)C(F)(F)F` [PFOA, perfluorooctanoic acid], the trypsin activity retained entry on porcine trypsin (0.5% surfactant, control without agent = 100%) is listed as “more than 80%”; on porcine trypsin (PFOA concentrations up to 0.25%, control without agent = 100%) it was “fully enzymatically activity; also recorded: full activity”. Moreover, the pKa was 3.8 in series [2] (carboxyl group, at infinite dilution / diluted solution, determined experimentally) and “lower than 1” in series [2] (other reports). Besides, the Protein amount solubilized in series [1] (OS membrane pellet in 100 mM ABC with agent at the concentration printed in the row (25 mM SDS 0.8% w/v, 25 mM PFOA 1% w/v, 4M urea, 4M Gdn-HCl), mean ± SD, triplicate) was 47.4 ± 4.4 μg/10μ OS membrane preparation. Further, in series [1] (text: 100 mM ABC, 1% PFOA, 1% SDS, urea, Gdn-HCl), the “protein solubilized” value was found to be 47.4 µg.
On to `NC(N)=O` [Urea, urea], for which the trypsin activity retained result at porcine trypsin (2 M agent) is recorded as “approximately 50%”. In addition, at porcine trypsin (4 M agent), the trypsin activity retained is given as around 20%. For the same compound, in series [1], the Protein amount solubilized was 8.1 ± 3.4 μg/10μ OS membrane preparation and the “protein solubilized” value stood at 8.1 µg.
As to “AEFVEVTK (listed as Homo sapiens) [SEQ ID No: 7, tryptic peptide of BSA]”, in series [3], the pI came out at 4.5.
Same read-out and setting: the result for “DAFLGSFLYEYSR (listed as Homo sapiens) [SEQ ID No: 13, tryptic peptide of BSA]” reads 4.4; that for “ECCHGDLLECADDR (listed as Homo sapiens) [SEQ ID No: 17, tryptic peptide of BSA]”, 4.1.
For “ETYGDM(o)ADCCEK (ETYGD[Met(O)]ADCCEK; cysteine pairing not given here; listed as Homo sapiens) [SEQ ID No: 20, tryptic peptide of BSA]”, the pI in series [3] was 3.9.
“ETYGDMADCCEK (listed as Homo sapiens) [SEQ ID No: 21, tryptic peptide of BSA]” registered a pI in series [3] of 3.9.
Still for that read-out and setting: the result for “EYEATLEECCAK (listed as Homo sapiens) [SEQ ID No: 18, tryptic peptide of BSA]” reads 4.1.
Same read-out and setting: the result for “KQTALVELLK (listed as Homo sapiens) [SEQ ID No: 6, tryptic peptide of BSA]” reads 8.6; that for “KVPQVSTPTLVEVSR (listed as Homo sapiens) [SEQ ID No:5, tryptic peptide of BSA]”, 8.8; that for “LGEYGFQNALIVR (listed as Homo sapiens) [SEQ ID No: 10, tryptic peptide of BSA]”, 6.0.
“LKPDPNTLCDEFK (listed as Homo sapiens) [SEQ ID No: 12, tryptic peptide of BSA]”: the pI in series [3] was found to be 4.6.
Still for that read-out and setting: the result for “LVNELTEFAK (listed as Homo sapiens) [SEQ ID No: 4, tryptic peptide of BSA]” reads 4.5.
In series [3], “LVTDLTK (listed as Homo sapiens) [SEQ ID No: 1, tryptic peptide of BSA]” returned a pI of 5.8.
In turn, “M(o)PCTEDYLSLILNR ([Met(O)]PCTEDYLSLILNR; listed as Homo sapiens) [SEQ ID No: 14, tryptic peptide of BSA]” came in with a pI in series [3] of 4.4.
On the same count and under the same terms, the result for “RHPEYAVSVLLR (listed as Homo sapiens) [SEQ ID No: 9, tryptic peptide of BSA]” reads 8.8; that for “RHPYFYAPELLYYANK (listed as Homo sapiens) [SEQ ID No: 8, tryptic peptide of BSA]”, 8.4.
On the same count and under the same terms, the result for “SLHTLFGDELCK (listed as Homo sapiens) [SEQ ID No: 11, tryptic peptide of BSA]” reads 5.3.
The same measure, in the same setting: the same measure for “TCVADESHAGCEK (listed as Homo sapiens) [SEQ ID No: 19, tryptic peptide of BSA]”: 4.7; for “TVMENFVAFVDK (listed as Homo sapiens) [SEQ ID No: 16, tryptic peptide of BSA]”: 4.4.
For “VPQVSTPTLVEVSR (listed as Homo sapiens) [SEQ ID No: 3, tryptic peptide of BSA]”, in series [3], the pI is recorded as 6.0.
On the same count and under the same terms, the same measure for “YIYEIAR (listed as Homo sapiens) [SEQ ID No: 2, tryptic peptide of BSA]”: 6.0.
Still for that read-out and setting: the same measure for “YNGVFQECCQAEDK (listed as Homo sapiens) [SEQ ID No: 15, tryptic peptide of BSA]”: 4.1.

The pKa is the negative logarithm of the acid dissociation constant.

The record behind these values is patent US8921515B2, “Methods and compositions of preparation for proteome analysis” (Case Western Reserve University, priority 2011, dated 2014).
